These results are taken from publication PMC6023178, “Crystal structure of the C-terminal four-helix bundle of the potassium channel KCa3.1” (PLoS ONE, 2018).

Series [1] deals with the molecule itself. In words: crystal structure; SeMet-containing KCa3.1-CC crystallised with 3 mM CuCl2; 0.1 M imidazole (pH 6.5), 1.0 M sodium acetate; space group P4212, 1.75 Å; four-helix bundle generated by the crystallographic four-fold axis.
Series [2] concerns the molecule itself. Nature of the series: crystal structure; native KCa3.1-CC crystallised without copper (apo); 0.1 M imidazole (pH 6.5), 1.0 M sodium acetate; 1.75 Å, molecular replacement, only partially refined.

Square brackets hold non-standard residues; d marks the D form. Ends that are not written are not given here. SeMet = C[Se]CC[C@H](N)C(=O)O

B1: SeMet-containing KCa3.1-CC (C-terminal coiled-coil region of human KCa3.1, residues 376-415) (domain or fragment, UniProt O15554 376-415, looked up)
chain: [SeMet]ILYDLQQNLSSSHRALEKQIDTLAGKLDALTELLSTALG
notes: KCa3.1 (SK4, IK1), human, C-terminal coiled-coil region, residues 376-415; residues 376-414 are in the atomic model; Crystallised in the presence of 3 mM CuCl2; a Cu(II) ion is coordinated by the four copies of His389; also called SeMet KCa3.1-CC; SeMet SK4-CC (w/copper); source: E. coli B834(DE3), PASM-5052 auto-induction medium, purified (GST-trap, thrombin cleavage, Superdex 75); not shown: …
The term stoichiometry N denotes a count of units in the complex or per binding partner. In the case of B1, the “stoichiometry N” value in series [1] worked out at 4.

B2: native KCa3.1-CC (C-terminal coiled-coil region of human KCa3.1, residues 376-415) (domain or fragment, UniProt O15554 376-415, looked up)
chain: MILYDLQQNLSSSHRALEKQIDTLAGKLDALTELLSTALG
notes: KCa3.1 (SK4, IK1), human, C-terminal coiled-coil region, residues 376-415; Crystallised without copper (apo); also called native, apo KCa3.1-CC; source: E. coli BL21-Gold(DE3)pLysS, purified (GST-trap, thrombin cleavage, Superdex 75); not shown: GST, N-terminal, cleaved
Regarding B2, the binding result in series [2] is recorded as “binds”.
